Assay results as given in patent US8008021B2, “N-terminal truncation of cardiac troponin subunits and their roles in cardiovascular disease” (Evanston Northwestern Healthcare, priority 2006, dated 2011).

Tests used:
[1] = target: T1, myofibril associated μ-calpain (Mus musculus, UniProt O35350); test: Calpain inhibition of cTnT-ND production in TRITON X-100 extracted ventricular muscle strips (Western blot densitometry); assay type: biochemical; conditions: 100 μM hydrogen peroxide
T1 construct: To test whether endogenous calpain in the cardiac muscle contributes to TnT NH2-terminal modification; from tissue
T1 sequence (O35350 1-713): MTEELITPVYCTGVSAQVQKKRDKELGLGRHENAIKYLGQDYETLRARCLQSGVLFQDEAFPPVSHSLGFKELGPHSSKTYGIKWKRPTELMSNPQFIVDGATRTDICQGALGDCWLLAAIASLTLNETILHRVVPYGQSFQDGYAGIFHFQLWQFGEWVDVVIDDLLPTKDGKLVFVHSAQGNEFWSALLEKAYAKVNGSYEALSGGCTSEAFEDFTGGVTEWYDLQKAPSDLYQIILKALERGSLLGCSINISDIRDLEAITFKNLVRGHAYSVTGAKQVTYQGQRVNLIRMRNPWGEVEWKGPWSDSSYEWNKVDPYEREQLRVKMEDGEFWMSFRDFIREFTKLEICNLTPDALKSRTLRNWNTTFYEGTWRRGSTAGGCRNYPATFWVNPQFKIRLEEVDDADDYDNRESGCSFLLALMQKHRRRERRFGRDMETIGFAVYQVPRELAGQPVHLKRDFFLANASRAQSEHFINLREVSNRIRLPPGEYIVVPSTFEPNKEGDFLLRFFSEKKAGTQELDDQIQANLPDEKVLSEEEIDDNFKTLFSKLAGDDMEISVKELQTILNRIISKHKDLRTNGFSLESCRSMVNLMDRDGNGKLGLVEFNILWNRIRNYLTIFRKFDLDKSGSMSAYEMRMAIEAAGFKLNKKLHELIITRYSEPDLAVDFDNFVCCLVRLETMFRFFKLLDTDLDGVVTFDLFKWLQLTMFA
T1 sequence (O88456 1-268 partner): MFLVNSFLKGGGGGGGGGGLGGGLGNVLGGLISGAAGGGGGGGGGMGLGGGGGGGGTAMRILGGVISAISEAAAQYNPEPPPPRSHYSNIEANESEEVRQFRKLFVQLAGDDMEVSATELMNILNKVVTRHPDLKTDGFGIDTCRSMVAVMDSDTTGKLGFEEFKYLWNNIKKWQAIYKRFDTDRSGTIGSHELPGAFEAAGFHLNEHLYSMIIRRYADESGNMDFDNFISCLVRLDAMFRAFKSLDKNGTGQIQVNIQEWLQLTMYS
Experimental: (§1) SDS-PAGE and Western blotting. Ventricular muscle tissues or myocytes were homogenized in Laemmli SDS-PAGE sample buffer containing 2% SDS, heated at 80° C. for 5 min, and clarified by centrifugation. Total protein extracts were resolved by 14% Laemmli gel with an acrylamide:bisacrylamide ratio of 180:1 (low cross linker) or by 15% Laemmli gel with an acrylamide:bisacrylamide ratio of 29:1 (high cross linker). The gels were stained with Coomassie Brilliant Blue R250 to reveal the resolved protein bands. Duplicate gels were electrically blotted to nitrocellulose membranes, as described previously (21). After blocking in Tris-buffered saline (TBS) containing 1% bovine serum albumin (BSA), the membrane was incubated with anti-TnT mAbs CT3, 2C8, or polyclonal antibody RATnT. The membranes were then washed with high stringency using TBS containing 0.5% TRITON® X-100 and 0.05% SDS, incubated with alkaline phosphatase-conjugated anti-mouse IgG or anti-rabbit IgG second antibodies (Sigma), washed again, and developed in 5-bromo-4-chloro-3-indolylphosphate/nitro blue tetrazolium substrate solution, as described previously (21).
TRITON® X-100 extraction of ventricular muscle strips. In an ice container, ventricular muscle was cut with a sharp razor blade into fine pieces approximately the size of isolated trabeculae. The muscle strips were washed in relaxing solution containing […], 2 mM MgCl2, 2 mM EGTA, 10 mM Tris, 0.5 mM DTT, 0.1 mM PMSF and 2 mM Na4P2O7. After centrifugation at 2,800×g at 4° C. for 15 min, the pellet was skinned in relaxing solution plus 0.5% (w/w) TRITON® X-100 at 4° C. with rotation for 10 min. After centrifugation at 14,000×g at 4° C. for 20 min, the pellet was suspended in relaxing solution without TRITON® X-100 and incubated at 37° C. with rotation. Samples were collected at a series of time points for SDS-PAGE and Western blotting to examine the modifications of cTnT and other myofibrillar proteins.
Calpain inhibition. To test whether endogenous calpain in the cardiac muscle contributes to TnT NH2-terminal modification, several different calpain inhibitors were applied to the TRITON® X-100 extraction procedure. […] TRITON® X-100 treatment of mouse ventricular muscle strips was carried out as above in the presence or absence of 100 μM hydrogen peroxide and the effect on cTnT modification was examined by Western blotting.
The effects of two cell membrane-permissible nonpeptide calpain inhibitors, PD 150606 and PD 151746 (Calbiochem), were also tested. […] PD 150606 and […] were separately added to the relaxing solution before TRITON® X-100 treatment and incubated with the minced ventricular muscle at 4° C. for 10 minutes to allow the inhibitor to penetrate cell membrane and bind to calpain. After TRITON® X-100 extraction, samples were collected for SDS-PAGE and Western blotting to examine the effect on cTnT modification.

rabbit α-tropomyosin = target: T2, rabbit α-tropomyosin (Oryctolagus cuniculus, UniProt P58772); test: ELISA solid phase protein binding of immobilized cTnT to tropomyosin; conditions: for EC50: immobilized mouse cTnT, mean ± SD, read-out: concentration of tropomyosin for 50% maximum binding; for change in binding to tropomyosin on decrease of pH: pH from 7.0 to 6.2
T2 construct: Rabbit α-tropomyosin was purified from ventricular muscle as described previously (44); from tissue; host or cells: rabbit ventricular muscle
Experimental: (§2) Protein binding assays. Enzyme-linked immunosorbant assay (ELISA) solid phase protein binding experiments (21) were performed to investigate the interactions of the NH2-terminal truncated cTnT with TnI and tropomyosin. Purified intact and NH2-terminal truncated mouse cTnT or BSA control were dissolved at 5 μg/mL in Buffer A (0.1 M KCl, 3 mM MgCl2, 20 mM PIPES, pH 7.5) and coated onto 96-well microtiter plates by incubation at 4° C. overnight. After washes with Buffer T (Buffer A containing 0.05% polyoxyethylene 20 (TWEEN®20)) at pH 7.5 to remove the unbound protein, the plates were blocked with Buffer T at pH 7.0 or 6.2 containing 1% BSA. The immobilized cTnT was incubated with serial dilutions of bovine cardiac TnI or rabbit α-tropomyosin in Buffer T (at the blocking pH) containing 0.1% BSA at room temperature for 2 hours. After one wash with Buffer T of the blocking pH and two washes with Buffer T at pH 7.0, the bound TnI or tropomyosin was quantified via incubation at pH 7.0 and room temperature for 1 hour with the anti-TnI mAb TnI-1 (46) or an anti-tropomyosin mAb CH1 (47), respectively. The plates were then processed by a standard ELISA procedure, including pH 7.0 Buffer T washes, horse radish peroxidase-conjugated anti-mouse immunoglobulin second antibody (Sigma) incubation, and H2O2/2,2′-azinobis-(3-ethylbenzthiazolinesulfonic acid) substrate reaction (21). A405 nm of each assay well was recorded at a series of time points by an automated microtiter plate reader (BioRad Benchmark). The A405 nm values in the linear course of the color development were used to plot the protein binding affinity curves. All experiments were done in triplicate.

bovine cardiac TnI = target: T3, bovine cardiac TnI (Bos taurus, UniProt P08057); test: ELISA solid phase protein binding of immobilized cTnT to TnI; conditions: for EC50: immobilized mouse cTnT, mean ± SD, read-out: concentration of TnI required to reach 50% of maximum binding; for change in binding to TnI on decrease of pH: pH from 7.0 to 6.2
T3 construct: Bovine cardiac TnI was purified from ventricular muscle as described previously (19); from tissue; host or cells: bovine ventricular muscle
Experimental: as §2

[2] = tested on: cTnT in bovine cardiac myofibrils; test: μ-Calpain treatment of cardiac myofibrils (mAb CT3 Western blot densitometry); assay type: biochemical; conditions: 20 U/ml μ-calpain
Experimental: as §1
Mu-Calpain treatment of cTnT. […] The samples were analyzed by SDS-PAGE and Western blotting as described above. […]

Molecule | cTnT-ND production reduced to ([1]; TRITON X-100 extracted exon 7-deleted transgenic mouse ventricular muscle strips) | decrease in cTnT-ND72-291 ([1]; TRITON X-100 treated mouse ventricular muscle strips) | level of maximum binding to tropomyosin, compared with intact cTnT (rabbit α-tropomyosin; FIG. 12B insert) | EC50 (rabbit α-tropomyosin) | change in binding to tropomyosin on decrease of pH (rabbit α-tropomyosin) | maximum binding to TnI, compared with intact cTnT (bovine cardiac TnI; FIG. 12A insert) | EC50 (bovine cardiac TnI) | change in binding to TnI on decrease of pH (bovine cardiac TnI) | NH2-terminal truncated cTnT (cTnT ND) as share of total cTnT (truncated plus intact) ([2]; 0% at 0 U/ml) | intact cTnT remaining ([2]; 100% at 0 U/ml)
OO [hydrogen peroxide] | 65% | approximately 35% | – | – | – | – | – | – | – | –
cTnT ND: NH2-terminal truncated mouse cardiac troponin T lacking amino acids 1-71, expressed in E. coli | – | – | not significantly changed | 9.73 ± 0.185 nM | did not result in significant change | No significant difference | 8.73 ± 1.15 nM | did not result in significant change | – | –
intact cTnT: intact mouse cardiac troponin T (TnT4) expressed in E. coli | – | – | – | 13.5 ± 1.38 nM | did not result in significant change | – | 15.3 ± 1.36 nM | did not result in significant change | – | –
μ-calpain: calcium activated cysteine protease (Calbiochem) used to treat cTnT, troponin complex and myofibrils (protein, UniProt P07384 2-714, looked up) Calpain-1 catalytic subunit: SEEIITPVYCTGVSAQVQKQRARELGLGRHENAIKYLGQDYEQLRVRCLQSGTLFRDEAFPPVPQSLGYKDLGPNSSKTYGIKWKRPTELLSNPQFIVDGATRTDICQGALGDCWLLAAIASLTLNDTLLHRVVPHGQSFQNGYAGIFHFQLWQFGEWVDVVVDDLLPIKDGKLVFVHSAEGNEFWSALLEKAYAKVNGSYEALSGGSTSEGFEDFTGGVTEWYELRKAPSDLYQIILKALERGSLLGCSIDISSVLDMEAITFKKLVKGHAYSVTGAKQVNYRGQVVSLIRMRNPWGEVEWTGAWSDSSSEWNNVDPYERDQLRVKMEDGEFWMSFRDFMREFTRLEICNLTPDALKSRTIRKWNTTLYEGTWRRGSTAGGCRNYPATFWVNPQFKIRLDETDDPDDYGDRESGCSFVLALMQKHRRRERRFGRDMETIGFAVYEVPPELVGQPAVHLKRDFFLANASRARSEQFINLREVSTRFRLPPGEYVVVPSTFEPNKEGDFVLRFFSEKSAGTVELDDQIQANLPDEQVLSEEEIDENFKALFRQLAGEDMEISVKELRTILNRIISKHKDLRTKGFSLESCRSMVNLMDRDGNGKLGLVEFNILWNRIRNYLSIFRKFDLDKSGSMSAYEMRMAIESAGFKLNKKLYELIITRYSEPDLAVDFDNFVCCLVRLETMFRFFKTLDTDLDGVVTFDLFKWLQLTMFA | – | – | – | – | – | – | – | – | 98% | 1.5%
